The source of these data is patent US12202907B2, “Nucleic acids encoding and methods of producing proteins comprising antibody chains” (Innate Pharma, priority 2018, dated 2025).

In data set [1] the target is T1, CD39 expressed by Ramos human lymphoma cells (Homo sapiens, UniProt P49961).
T1 construct: cells that endogenously express CD39 at their surface; host or cells: Ramos
T1 sequence (P49961 1-510): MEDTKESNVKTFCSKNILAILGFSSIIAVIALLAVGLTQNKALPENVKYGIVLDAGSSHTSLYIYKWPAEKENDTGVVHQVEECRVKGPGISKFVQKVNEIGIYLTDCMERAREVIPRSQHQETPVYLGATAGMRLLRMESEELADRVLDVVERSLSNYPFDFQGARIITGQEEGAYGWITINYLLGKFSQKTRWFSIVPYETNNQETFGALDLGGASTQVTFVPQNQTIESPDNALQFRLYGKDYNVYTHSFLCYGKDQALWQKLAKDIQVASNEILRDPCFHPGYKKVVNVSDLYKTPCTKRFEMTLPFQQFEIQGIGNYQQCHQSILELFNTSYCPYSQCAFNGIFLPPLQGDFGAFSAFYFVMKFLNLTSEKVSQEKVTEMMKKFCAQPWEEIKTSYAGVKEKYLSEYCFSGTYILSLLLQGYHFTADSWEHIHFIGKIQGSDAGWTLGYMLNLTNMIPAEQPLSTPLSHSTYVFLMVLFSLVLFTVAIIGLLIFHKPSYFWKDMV
As to the kind of experiment: Inhibition of the enzymatic activity of cellular CD39 in Ramos cells. The format is cell-based. The protocol: The inhibition of the CD39 enzymatic activity in CD39-expressing cells by antibodies was evaluated using Cell Titer GIo™ (Promega, reference G7571) that allows assessment of ATP hydrolysis through use of a reagent that generates a luminescent signal proportional to the amount of ATP present. The assay was thus designed to permit assessment of the inhibition of ATP hydrolyzed by CD39 in the cell culture supernatant. Briefly, 5×10^4 Ramos human lymphoma cells, 5×10^3 human CD39−, cynomolgus CD39—and mouse CD39− expressing CHO cells, were incubated 1 hour at 37° C. with anti-CD39 antibodies from 30 μg/ml to 5×10^−4 μg/ml. Cells were then incubated with 20 μM ATP for 1 additional hour at 37° C. Plates were centrifuged for 2 min at 400 g and 50 μl cell supernatant are transferred in a luminescence microplate (white wells). 50 μl CellTiter-Glo™ Reagent (CTG) was added to the supernatant and emitted light was quantified after a 5 min incubation in the dark using a Enspire™ luminometer. Anti-CD39 antibody efficacy was determined by comparing emitted light in presence of antibody with ATP alone (maximal light emission) and ATP together with cells (minimal light emission).

Data set [2] deals with T2, CHO cells expressing human CD39 (Homo sapiens, UniProt P49961).
T2 construct: expressed in transfected cells; host or cells: CHO
T2 sequence (P49961 1-510): T1 sequence (P49961 1-510)
Put plainly: Antibody titration on CHO-huCD39 by flow cytometry. The format is binding. The conditions noted are these: qualitative. The protocol: (§1) Antibody I-394 was tested in two repeated experiments for binding to CHO cells expressing human CD39, CHO cells expressing cynomolgus (Macaca fascicularis) CD39, CHO cells expressing murine CD39, and human Ramos lymphoma cells (ATCC™, reference CRL-1596). Cells were incubated with various concentration of unlabeled anti-CD39 antibody from 30 μg/ml to 5×10^−4 μg/ml, for 30 minutes at 4° C. After washes, cells were incubated with Goat anti-mouse H+L labeled secondary antibody for 30 min at 4° C.
Background: A flow cytometer gives signals particle by particle.

In data set [3] the target is T3, CHO cells expressing murine CD39 (Mus musculus, UniProt P55772).
T3 construct: expressed in transfected cells; host or cells: CHO
T3 sequence (P55772 1-510): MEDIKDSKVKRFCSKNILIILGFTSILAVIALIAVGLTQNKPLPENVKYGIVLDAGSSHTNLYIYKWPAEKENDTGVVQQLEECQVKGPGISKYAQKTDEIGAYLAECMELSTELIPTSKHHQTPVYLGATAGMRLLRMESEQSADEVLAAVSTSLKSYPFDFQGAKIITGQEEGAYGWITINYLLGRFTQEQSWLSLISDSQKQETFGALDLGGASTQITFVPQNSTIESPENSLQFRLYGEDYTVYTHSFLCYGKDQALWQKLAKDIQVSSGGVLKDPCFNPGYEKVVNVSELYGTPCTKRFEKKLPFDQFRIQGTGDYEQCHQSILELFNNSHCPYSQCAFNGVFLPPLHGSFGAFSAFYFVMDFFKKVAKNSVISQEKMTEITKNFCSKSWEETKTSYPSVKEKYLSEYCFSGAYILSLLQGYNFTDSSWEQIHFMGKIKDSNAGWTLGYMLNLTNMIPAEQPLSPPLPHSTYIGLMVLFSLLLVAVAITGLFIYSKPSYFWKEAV
Put plainly: Antibody titration on CHO-moCD39 by flow cytometry. As to conditions: qualitative. The format is binding. As for the experimental part:
as §1

For data set [4], the system named is monocyte-derived DC (moDC). As to the kind of experiment: Activation of dendritic cells in the presence of ATP. The format is cell-based, human. As to conditions: ATP 0.125 mM, 0.25 mM or 0.5 mM; I-394 at 10 μg/ml. As for the experimental part: Briefly, human monocytes were purified from human healthy blood and differentiated into MoDC in presence of GM-CSF and IL-4 during 6 days. […] In some cases, MoDC were preincubated for 1 hour in presence of CD39 inhibitor: […] (Tocris, 250 μM), CD73 inhibitor: APCP (Tocris 50 μM), anti-CD39 blocking antibody I-394 or BY40 (for BY40 see WO2009/095478), or anti-CD73 blocking antibodies. LPS (Invivogen, 10 ng/ml) was used as positive control. To assess resulting effect of ATP-mediated DC activation on CD4 T cells activation, ATP-activated DC were washed and then incubated with allogenic CD4 T cells (ratio 1 MoDC/4 T cells) for a mixed lymphocytes reaction (MLR) during 5 days. T cells activation and proliferation were analyzed through CD25 expression and Cell Trace Violet dilution by flow cytometry (FIG. 8).

The target of data set [5] is T4, CD39 (Homo sapiens, UniProt P49961).
T4 sequence (P49961 1-510): T1 sequence (P49961 1-510)
Put plainly: ELISA titration on huCD39 (vascular isoform). The format is binding. Also noted: made in house. As for the experimental part:
Antibody I-394 was tested for binding to recombinant human CD39 isoforms (Rec-huCD39 isoforms) having amino acid sequences shown below were coated in 96-well plate in PBS 1X at 500 ng/ml or 1 μg/ml at 4° C. overnight. Wells were washed in TBS Tween® 20 (polysorbate 20), and further saturated 2H at RT in TBS Blocking buffer. Dose range concentration of primary antibody was incubated in TBS blocking buffer for 2 h at RT. Wells were washed in TBS Tween® 20 (polysorbate 20). […] Optical density was measured on Enspire™ at OD=450.

Consider “I-394: anti-CD39 antibody, VH SEQ ID NO: 6, VL SEQ ID NO: 7, human IgG1 Fc with L234A/L235E/G237A/A330S/P331S”, for which, in data set [1] (Ramos cells), the “inhibition maximum, cellular CD39” value worked out at 81.6% and the “potency at blocking CD39 enzymatic activity relative to other antibodies” value is given as “greater potency compared to all other antibodies tested”. In addition, the “blocking CD39 enzymatic activity in tumor (Ramos) cells” value in data set [1] (qualitative) was “highly potent at blocking CD39 enzymatic activity”. Moreover, the “binding to cells expressing human CD39 (CHO-huCD39)” value in data set [2] is “bound”. Besides, the “binding to cells expressing murine CD39 (CHO-moCD39)” value in data set [3] was “but not to cells expressing murine CD39”. In data set [4], the “ATP-induced moDC activation (HLA-DR or CD83 expression)” value is reported as “permitted moDC activation”. In data set [5], the “binding to CD39 in ELISA” value is recorded as “bound to the CD39”.
